# Measured values published in PMC9482650, “Quantitative fragmentomics allow affinity mapping of interactomes” (Nature Communications, 2022).
# T1: ARHGAP21, Q5T5U3
# T1 sequence (Q5T5U3 45-169, limits assumed, looked up): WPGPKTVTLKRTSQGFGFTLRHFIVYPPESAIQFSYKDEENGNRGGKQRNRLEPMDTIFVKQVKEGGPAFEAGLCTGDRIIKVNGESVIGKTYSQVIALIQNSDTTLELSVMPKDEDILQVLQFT
# T2: ARHGEF11, O15085
# T2 sequence (O15085 42-136, limits assumed, looked up): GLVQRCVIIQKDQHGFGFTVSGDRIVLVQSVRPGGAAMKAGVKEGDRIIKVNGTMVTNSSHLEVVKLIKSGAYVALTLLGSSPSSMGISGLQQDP
# T3: DLG3_2, Q92796
# T3 sequence (Q92796 221-321, limits assumed, looked up): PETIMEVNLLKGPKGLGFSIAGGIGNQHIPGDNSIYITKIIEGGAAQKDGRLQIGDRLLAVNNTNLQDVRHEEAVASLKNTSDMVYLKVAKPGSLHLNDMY
# T4: LNX2_2, Q8N448
# T4 sequence (Q8N448 334-432, limits assumed, looked up): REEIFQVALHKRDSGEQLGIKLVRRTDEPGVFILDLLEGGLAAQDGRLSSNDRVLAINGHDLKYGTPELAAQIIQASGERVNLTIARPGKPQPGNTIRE
# T5: MPP6, Q9NZW5
# T5 sequence (Q9NZW5 125-219, limits assumed, looked up): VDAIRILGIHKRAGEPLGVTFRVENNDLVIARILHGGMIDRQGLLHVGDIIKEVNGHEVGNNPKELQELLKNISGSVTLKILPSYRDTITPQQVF
# T6: NHERF3_3, Q5T2W1
# T6 sequence (Q5T2W1 238-333, limits assumed, looked up): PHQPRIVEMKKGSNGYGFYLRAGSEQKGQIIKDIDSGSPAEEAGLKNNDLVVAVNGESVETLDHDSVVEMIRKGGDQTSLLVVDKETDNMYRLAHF
# T7: PCLO, Q9Y6V0
# T7 sequence (Q9Y6V0 4491-4600, limits assumed, looked up): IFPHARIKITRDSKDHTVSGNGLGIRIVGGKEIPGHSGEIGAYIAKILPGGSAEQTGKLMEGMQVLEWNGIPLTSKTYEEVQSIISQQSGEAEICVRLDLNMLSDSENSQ
# T8: PDZRN3_1, Q9UPQ7
# T8 sequence (Q9UPQ7 244-349, limits assumed, looked up): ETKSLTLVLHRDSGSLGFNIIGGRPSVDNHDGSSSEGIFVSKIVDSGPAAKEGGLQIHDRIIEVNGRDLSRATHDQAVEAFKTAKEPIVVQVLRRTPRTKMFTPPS
# T9: RHPN1, Q8TCX5
# T9 sequence (Q8TCX5 508-602, limits assumed, looked up): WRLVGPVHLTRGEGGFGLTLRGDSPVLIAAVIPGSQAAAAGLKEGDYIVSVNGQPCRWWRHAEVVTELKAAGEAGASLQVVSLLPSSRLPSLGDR
# T10: SHANK1, Q9Y566
# T10 sequence (Q9Y566 658-767, limits assumed, looked up): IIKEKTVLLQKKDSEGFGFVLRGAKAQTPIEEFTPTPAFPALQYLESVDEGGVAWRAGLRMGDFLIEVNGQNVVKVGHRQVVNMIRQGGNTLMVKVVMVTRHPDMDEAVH
# T11: SIPA1L2, Q9P2F8
# T11 sequence (Q9P2F8 945-1036, limits assumed, looked up): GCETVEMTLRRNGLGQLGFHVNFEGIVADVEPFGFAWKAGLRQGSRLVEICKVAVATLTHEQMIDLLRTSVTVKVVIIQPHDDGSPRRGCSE
# B1: CTNNB1, P35222 (peptide)
# chain: NQLAWFDTDL
# B2: ACOT6, Q3I5F7 (peptide)
# chain: GKKSVKHSKI
# B3: HPV31-E6, P17386 (peptide)
# chain: SRRPRTETQV
# B4: LNX1, Q8TBB1 (peptide)
# chain: TIVSWPGTFL
# Tests used:
# Assay in all cases: holdup assay
# Set-up in all cases: key: below the threshold = too weak to quantify, mostly under pKd 3.1 to 4
# ARHGAP21, Q5T5U3 = biological target: T1, ARHGAP21, Q5T5U3
# ARHGEF11, O15085 = biological target: T2, ARHGEF11, O15085
# DLG3_2, Q92796 = biological target: T3, DLG3_2, Q92796
# DLG5_1, Q8TDM6 = biological target: DLG5_1, Q8TDM6
# GORASP1, Q9BQQ3 = biological target: GORASP1, Q9BQQ3
# GRIP2_5, Q9C0E4 = biological target: GRIP2_5, Q9C0E4
# IL16_1, Q14005 = biological target: IL16_1, Q14005
# IL16_4, Q14005 = biological target: IL16_4, Q14005
# Inadl_2, Q8NI35 = biological target: Inadl_2, Q8NI35
# Inadl_8, Q8NI35 = biological target: Inadl_8, Q8NI35
# LDB3, O75112 = biological target: LDB3, O75112
# LNX2_2, Q8N448 = biological target: T4, LNX2_2, Q8N448
# MAST1, Q9Y2H9 = biological target: MAST1, Q9Y2H9
# MAST2, Q6P0Q8 = biological target: MAST2, Q6P0Q8
# MPP6, Q9NZW5 = biological target: T5, MPP6, Q9NZW5
# NHERF2_2, Q15599 = biological target: NHERF2_2, Q15599
# NHERF3_3, Q5T2W1 = biological target: T6, NHERF3_3, Q5T2W1
# NHERF4_4, Q86UT5 = biological target: NHERF4_4, Q86UT5
# PCLO, Q9Y6V0 = biological target: T7, PCLO, Q9Y6V0
# PDZRN3_1, Q9UPQ7 = biological target: T8, PDZRN3_1, Q9UPQ7
# PICK1, Q9NRD5 = biological target: PICK1, Q9NRD5
# PTPN3, P26045 = biological target: PTPN3, P26045
# RHPN1, Q8TCX5 = biological target: T9, RHPN1, Q8TCX5
# SHANK1, Q9Y566 = biological target: T10, SHANK1, Q9Y566
# SIPA1L2, Q9P2F8 = biological target: T11, SIPA1L2, Q9P2F8
# SNX27, Q96L92 = biological target: SNX27, Q96L92
# TJP1_2, Q07157 = biological target: TJP1_2, Q07157
# [1] = plain residues with an end cap or a label only (N-terminal biotin on a linker: ttds)
# [2] = plain residues with an end cap or a label only (N-terminal biotin on a linker: ado-ado)
# [3] = plain residues with an end cap or a label only (N-terminal biotin on a linker: ahx)
# Chain of GRIP2_5, Q9C0E4 (Q9C0E4 544-642): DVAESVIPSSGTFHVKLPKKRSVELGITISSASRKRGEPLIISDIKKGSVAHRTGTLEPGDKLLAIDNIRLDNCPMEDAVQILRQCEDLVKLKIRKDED
# Chain of NHERF4_4, Q86UT5 (Q86UT5 464-550): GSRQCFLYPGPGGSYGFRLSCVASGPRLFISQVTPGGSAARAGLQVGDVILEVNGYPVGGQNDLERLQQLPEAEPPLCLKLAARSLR
# Chain of IL16_1, Q14005 (Q14005 210-306): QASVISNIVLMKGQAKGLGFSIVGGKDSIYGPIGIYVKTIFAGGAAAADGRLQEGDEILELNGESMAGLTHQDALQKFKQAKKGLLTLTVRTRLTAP
# Chain of TJP1_2, Q07157 (Q07157 181-274): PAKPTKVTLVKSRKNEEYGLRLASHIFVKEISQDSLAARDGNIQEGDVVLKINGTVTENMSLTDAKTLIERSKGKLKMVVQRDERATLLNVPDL
# Chain of DLG5_1, Q8TDM6 (Q8TDM6 617-713): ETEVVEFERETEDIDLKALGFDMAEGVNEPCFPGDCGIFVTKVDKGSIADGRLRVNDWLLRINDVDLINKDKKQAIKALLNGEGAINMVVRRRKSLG
# Chain of Inadl_2, Q8NI35 (Q8NI35 238-335): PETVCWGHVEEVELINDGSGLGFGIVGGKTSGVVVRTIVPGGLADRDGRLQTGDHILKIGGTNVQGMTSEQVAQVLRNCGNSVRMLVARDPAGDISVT
# Chain of PICK1, Q9NRD5 (Q9NRD5 17-115): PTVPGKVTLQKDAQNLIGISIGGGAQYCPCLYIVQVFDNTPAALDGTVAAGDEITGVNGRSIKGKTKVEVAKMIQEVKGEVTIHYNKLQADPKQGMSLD
# Chain of LDB3, O75112 (O75112 1-94): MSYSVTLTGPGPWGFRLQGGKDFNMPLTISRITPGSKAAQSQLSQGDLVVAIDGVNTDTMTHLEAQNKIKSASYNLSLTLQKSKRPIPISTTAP
# Chain of GORASP1, Q9BQQ3 (Q9BQQ3 1-208): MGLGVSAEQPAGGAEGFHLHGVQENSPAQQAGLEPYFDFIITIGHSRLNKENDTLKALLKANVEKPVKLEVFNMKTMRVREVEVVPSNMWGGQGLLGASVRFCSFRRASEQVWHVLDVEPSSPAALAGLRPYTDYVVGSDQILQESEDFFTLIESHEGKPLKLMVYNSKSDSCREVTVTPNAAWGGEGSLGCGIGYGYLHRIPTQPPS
# Chain of MAST1, Q9Y2H9 (Q9Y2H9 962-1065): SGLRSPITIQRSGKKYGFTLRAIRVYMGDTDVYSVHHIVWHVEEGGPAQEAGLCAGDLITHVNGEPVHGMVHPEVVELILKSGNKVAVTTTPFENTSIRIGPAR
# Chain of Inadl_8, Q8NI35 (Q8NI35 1425-1530): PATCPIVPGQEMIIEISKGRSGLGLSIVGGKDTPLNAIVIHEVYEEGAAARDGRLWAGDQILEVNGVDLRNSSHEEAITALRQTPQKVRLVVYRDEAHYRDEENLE
# Chain of IL16_4, Q14005 (Q14005 1229-1329): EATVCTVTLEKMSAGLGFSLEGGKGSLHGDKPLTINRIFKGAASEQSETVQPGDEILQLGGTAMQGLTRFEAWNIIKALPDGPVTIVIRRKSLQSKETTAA
# Chain of MAST2, Q6P0Q8 (Q6P0Q8 1099-1202): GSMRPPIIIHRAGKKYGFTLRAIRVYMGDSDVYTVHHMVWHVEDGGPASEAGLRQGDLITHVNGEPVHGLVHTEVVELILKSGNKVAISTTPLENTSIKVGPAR
# Chain of PTPN3, P26045 (P26045 505-587): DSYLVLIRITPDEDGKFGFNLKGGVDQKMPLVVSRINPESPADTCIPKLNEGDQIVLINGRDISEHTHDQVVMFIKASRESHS
# Chain of NHERF2_2, Q15599 (Q15599 142-238): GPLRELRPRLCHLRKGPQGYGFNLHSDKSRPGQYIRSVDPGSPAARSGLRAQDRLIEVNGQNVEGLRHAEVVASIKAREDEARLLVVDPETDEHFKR
binder,measurement,setting,value
B1,pKd,"ARHGAP21, Q5T5U3; [1]",4.88
same,pKd,"ARHGEF11, O15085; [1]",3.77
same,pKd,"DLG3_2, Q92796; [1]",below the threshold
same,pKd,"DLG5_1, Q8TDM6; [1]",below the threshold
same,pKd,"GORASP1, Q9BQQ3; [1]",below the threshold
same,pKd,"GRIP2_5, Q9C0E4; [1]",below the threshold
same,pKd,"IL16_1, Q14005; [1]",below the threshold
same,pKd,"IL16_4, Q14005; [1]",below the threshold
same,pKd,"Inadl_2, Q8NI35; [1]",below the threshold
same,pKd,"Inadl_8, Q8NI35; [1]",below the threshold
same,pKd,"LDB3, O75112; [1]",3.99
same,pKd,"LNX2_2, Q8N448; [1]",below the threshold
same,pKd,"MAST1, Q9Y2H9; [1]",4.83
same,pKd,"MAST2, Q6P0Q8; [1]",6.04
same,pKd,"MPP6, Q9NZW5; [1]",below the threshold
same,pKd,"NHERF2_2, Q15599; [1]",4.87
same,pKd,"NHERF3_3, Q5T2W1; [1]",below the threshold
same,pKd,"NHERF4_4, Q86UT5; [1]",4.04
same,pKd,"PCLO, Q9Y6V0; [1]",below the threshold
same,pKd,"PDZRN3_1, Q9UPQ7; [1]",below the threshold
same,pKd,"PICK1, Q9NRD5; [1]",below the threshold
same,pKd,"PTPN3, P26045; [1]",4.33
same,pKd,"RHPN1, Q8TCX5; [1]",4.46
same,pKd,"SHANK1, Q9Y566; [1]",4.1
same,pKd,"SIPA1L2, Q9P2F8; [1]",below the threshold
same,pKd,"SNX27, Q96L92; [1]",4.91
same,pKd,"TJP1_2, Q07157; [1]",below the threshold
B2,pKd,"ARHGAP21, Q5T5U3; [2]",4.06
same,pKd,"ARHGEF11, O15085; [2]",below the threshold
same,pKd,"DLG3_2, Q92796; [2]",below the threshold
same,pKd,"DLG5_1, Q8TDM6; [2]",below the threshold
same,pKd,"GORASP1, Q9BQQ3; [2]",below the threshold
same,pKd,"GRIP2_5, Q9C0E4; [2]",below the threshold
same,pKd,"IL16_1, Q14005; [2]",below the threshold
same,pKd,"IL16_4, Q14005; [2]",below the threshold
same,pKd,"Inadl_2, Q8NI35; [2]",below the threshold
same,pKd,"Inadl_8, Q8NI35; [2]",3.88
same,pKd,"LDB3, O75112; [2]",below the threshold
same,pKd,"LNX2_2, Q8N448; [2]",below the threshold
same,pKd,"MAST1, Q9Y2H9; [2]",below the threshold
same,pKd,"MAST2, Q6P0Q8; [2]",4.03
same,pKd,"MPP6, Q9NZW5; [2]",3.5
same,pKd,"NHERF2_2, Q15599; [2]",below the threshold
same,pKd,"NHERF3_3, Q5T2W1; [2]",below the threshold
same,pKd,"NHERF4_4, Q86UT5; [2]",3.76
same,pKd,"PCLO, Q9Y6V0; [2]",below the threshold
same,pKd,"PDZRN3_1, Q9UPQ7; [2]",below the threshold
same,pKd,"PICK1, Q9NRD5; [2]",3.99
same,pKd,"PTPN3, P26045; [2]",4.19
same,pKd,"RHPN1, Q8TCX5; [2]",below the threshold
same,pKd,"SHANK1, Q9Y566; [2]",below the threshold
same,pKd,"SIPA1L2, Q9P2F8; [2]",below the threshold
same,pKd,"SNX27, Q96L92; [2]",below the threshold
same,pKd,"TJP1_2, Q07157; [2]",below the threshold
B3,pKd,"ARHGAP21, Q5T5U3; [1]",below the threshold
same,pKd,"ARHGEF11, O15085; [1]",3.58
same,pKd,"DLG3_2, Q92796; [1]",5.41
same,pKd,"DLG5_1, Q8TDM6; [1]",below the threshold
same,pKd,"GORASP1, Q9BQQ3; [1]",below the threshold
same,pKd,"GRIP2_5, Q9C0E4; [1]",below the threshold
same,pKd,"IL16_1, Q14005; [1]",below the threshold
same,pKd,"IL16_4, Q14005; [1]",below the threshold
same,pKd,"Inadl_2, Q8NI35; [1]",below the threshold
same,pKd,"Inadl_8, Q8NI35; [1]",below the threshold
same,pKd,"LDB3, O75112; [1]",below the threshold
same,pKd,"LNX2_2, Q8N448; [1]",below the threshold
same,pKd,"MAST1, Q9Y2H9; [1]",4.42
same,pKd,"MAST2, Q6P0Q8; [1]",5.23
same,pKd,"MPP6, Q9NZW5; [1]",below the threshold
same,pKd,"NHERF2_2, Q15599; [1]",below the threshold
same,pKd,"NHERF3_3, Q5T2W1; [1]",below the threshold
same,pKd,"NHERF4_4, Q86UT5; [1]",below the threshold
same,pKd,"PCLO, Q9Y6V0; [1]",below the threshold
same,pKd,"PDZRN3_1, Q9UPQ7; [1]",4.09
same,pKd,"PICK1, Q9NRD5; [1]",below the threshold
same,pKd,"PTPN3, P26045; [1]",4.66
same,pKd,"RHPN1, Q8TCX5; [1]",3.74
same,pKd,"SHANK1, Q9Y566; [1]",below the threshold
same,pKd,"SIPA1L2, Q9P2F8; [1]",below the threshold
same,pKd,"SNX27, Q96L92; [1]",4.64
same,pKd,"TJP1_2, Q07157; [1]",below the threshold
B4,pKd,"ARHGAP21, Q5T5U3; [3]",below the threshold
same,pKd,"ARHGEF11, O15085; [3]",below the threshold
same,pKd,"DLG3_2, Q92796; [3]",below the threshold
same,pKd,"DLG5_1, Q8TDM6; [3]",below the threshold
same,pKd,"GORASP1, Q9BQQ3; [3]",below the threshold
same,pKd,"GRIP2_5, Q9C0E4; [3]",below the threshold
same,pKd,"IL16_1, Q14005; [3]",below the threshold
same,pKd,"IL16_4, Q14005; [3]",below the threshold
same,pKd,"Inadl_2, Q8NI35; [3]",below the threshold
same,pKd,"Inadl_8, Q8NI35; [3]",below the threshold
same,pKd,"LDB3, O75112; [3]",below the threshold
same,pKd,"LNX2_2, Q8N448; [3]",below the threshold
same,pKd,"MAST1, Q9Y2H9; [3]",4.25
same,pKd,"MAST2, Q6P0Q8; [3]",4.59
same,pKd,"MPP6, Q9NZW5; [3]",below the threshold
same,pKd,"NHERF2_2, Q15599; [3]",4.21
same,pKd,"NHERF3_3, Q5T2W1; [3]",below the threshold
same,pKd,"NHERF4_4, Q86UT5; [3]",below the threshold
same,pKd,"PCLO, Q9Y6V0; [3]",below the threshold
same,pKd,"PDZRN3_1, Q9UPQ7; [3]",3.85
same,pKd,"PICK1, Q9NRD5; [3]",below the threshold
same,pKd,"PTPN3, P26045; [3]",4.52
same,pKd,"RHPN1, Q8TCX5; [3]",4.17
same,pKd,"SHANK1, Q9Y566; [3]",4.24
same,pKd,"SIPA1L2, Q9P2F8; [3]",below the threshold
same,pKd,"SNX27, Q96L92; [3]",3.79
same,pKd,"TJP1_2, Q07157; [3]",below the threshold
